Residue numbers refer to the chain shown, from its start. Names may count otherwise.
B1: EgtBCth (Cabther_A1318) (Chloracidobacterium thermophilum B; A420Y/D52L) (protein)
chain: EAARSHPEPIQSGEVSDRKAWQRHYRAVRAVSEAICQPLETEDYVVQPMPLVSPPKWHLGHTSWFFETFILKSGLADYRPFHPRYDYIFNSYYEAVGARHPRPQRGLLTRPTVSEVYAYRAHVDAAVERFIAHSDTRTWAALQPILELGLHHEQQHQELLLTDIKAILATNPLDPVYRPQPQPLPSPVEQLSPTGDWHIVEGGRYAIGHAGRGFAFDNEGPRHDVLLRPCRIAARPVTNGEFLAFMADGGYRRPELWLSDGWAAVTARGWEAPLYWRQAADGTWETLTLHGVQPVAPYEPVCHISFYEADAYARWAGKRLPTEAEWEVVAARLPVTGNFYESGVLHPRPVSVSAAFYGDVWVWTASPYVGYPGFRPVSGALGEYNGKFMCNQMVLRGGSCATSLTHIRSTYRNFFPPDYRWQFTGVRLAEDMS
B2: EgtBCth (Cabther_A1318) (Chloracidobacterium thermophilum B; A420Y) (protein)
chain: B1 chain with L51D
B3: EgtBCth (Cabther_A1318) (Chloracidobacterium thermophilum B; D52L) (protein)
chain: B1 chain with Y419A
B4: EgtBCth (Cabther_A1318) (Chloracidobacterium thermophilum B) (protein)
chain: B1 chain with L51D, Y419A

Columns and labels:
Test in all cases: oxygen consumption assay
Type in all cases: biochemical, Chloracidobacterium thermophilum
oxygen consumption assay [1] = substrate: C[N+](C)(C)[C@@H](Cc1cnc[nH]1)C(=O)[O-]; conditions: co-substrate L-Cys
oxygen consumption assay [2] = substrate: N[C@@H](CS)C(=O)O; conditions: co-substrate hercynine
oxygen consumption assay [3] = substrate: N[C@@H](CCC(=O)N[C@@H](CS)C(=O)O)C(=O)O; conditions: co-substrate hercynine

Row | Protein | Km (oxygen consumption assay [1]) [µM] | kcat (oxygen consumption assay [1]) [s⁻¹] | kcat/Km (oxygen consumption assay [1]) [M⁻¹ s⁻¹] | Km (oxygen consumption assay [2]) [µM] | kcat (oxygen consumption assay [2]) [s⁻¹] | kcat/Km (oxygen consumption assay [2]) [M⁻¹ s⁻¹] | Km (oxygen consumption assay [1]; Fe(II) enzyme) [µM] | kcat/Km (oxygen consumption assay [3]) [M⁻¹ s⁻¹]
1 | B1 | 23.3 ± 1.2 | 0.545 ± 0.005 | 23300 ± 1170 | 48.7 ± 3.5 | 0.545 ± 0.005 | 11200 ± 667 | – | –
2 | B2 | 39.2 ± 1.6 | – | 11700 ± 500 | 28.1 ± 1.8 | – | 16300 ± 1000 | – | –
3 | B3 | 13.2 ± 1.3 | – | – | 47.3 ± 2.4 | – | – | – | –
4 | B4 | – | – | – | 205 ± 18 | – | 2170 ± 167 | 87.7 ± 7.6 | 50 ± 8.33
